# Measured values as given in US20190194358A1 (ARIZONA BOARD OF REGENTS A BODY CORPORATE OF THE STATE OF …, published 2019).
# Ends that are not written are not given here.
# T1: Fbox-21 (human, UniProt O94952 1-628)
# T1 construct: GST fusion adsorbed on a nitrocellulose slide
# T1 sequence (looked up): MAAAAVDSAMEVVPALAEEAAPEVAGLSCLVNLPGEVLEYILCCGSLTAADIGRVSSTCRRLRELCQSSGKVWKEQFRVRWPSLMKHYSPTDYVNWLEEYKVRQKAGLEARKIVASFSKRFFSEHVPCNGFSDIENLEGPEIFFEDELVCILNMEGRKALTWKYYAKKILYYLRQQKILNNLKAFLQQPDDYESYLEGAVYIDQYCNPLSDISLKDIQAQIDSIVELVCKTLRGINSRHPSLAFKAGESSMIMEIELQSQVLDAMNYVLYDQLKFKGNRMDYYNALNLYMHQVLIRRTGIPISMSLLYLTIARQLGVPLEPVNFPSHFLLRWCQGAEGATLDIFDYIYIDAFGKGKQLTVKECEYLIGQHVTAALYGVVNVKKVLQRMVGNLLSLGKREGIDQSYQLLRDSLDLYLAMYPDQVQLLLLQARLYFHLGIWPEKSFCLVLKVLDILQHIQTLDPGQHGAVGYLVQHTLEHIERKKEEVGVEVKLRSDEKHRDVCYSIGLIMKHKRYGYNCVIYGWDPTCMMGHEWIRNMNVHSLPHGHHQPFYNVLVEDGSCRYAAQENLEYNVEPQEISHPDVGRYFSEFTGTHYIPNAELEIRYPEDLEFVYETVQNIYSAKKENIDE
# T2: GRP58 (human, UniProt P30101 25-505, limits assumed)
# T2 construct: GST fusion adsorbed on a nitrocellulose slide
# T2 sequence (looked up): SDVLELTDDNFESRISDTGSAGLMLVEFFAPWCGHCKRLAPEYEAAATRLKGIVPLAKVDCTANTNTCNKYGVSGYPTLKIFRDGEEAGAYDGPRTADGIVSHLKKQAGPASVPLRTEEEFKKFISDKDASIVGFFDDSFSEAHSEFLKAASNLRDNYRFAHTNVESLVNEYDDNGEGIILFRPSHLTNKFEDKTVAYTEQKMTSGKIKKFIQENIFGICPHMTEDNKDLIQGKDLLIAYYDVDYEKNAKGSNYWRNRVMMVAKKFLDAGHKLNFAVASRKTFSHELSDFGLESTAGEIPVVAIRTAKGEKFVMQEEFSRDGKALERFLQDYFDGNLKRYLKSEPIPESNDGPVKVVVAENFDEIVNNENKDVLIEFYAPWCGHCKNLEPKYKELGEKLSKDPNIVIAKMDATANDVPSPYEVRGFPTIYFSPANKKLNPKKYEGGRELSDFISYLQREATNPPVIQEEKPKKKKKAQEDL
# T3: ANXA1 (human, UniProt P04083)
# T3 construct: GST fusion on the array
# T3 sequence (looked up): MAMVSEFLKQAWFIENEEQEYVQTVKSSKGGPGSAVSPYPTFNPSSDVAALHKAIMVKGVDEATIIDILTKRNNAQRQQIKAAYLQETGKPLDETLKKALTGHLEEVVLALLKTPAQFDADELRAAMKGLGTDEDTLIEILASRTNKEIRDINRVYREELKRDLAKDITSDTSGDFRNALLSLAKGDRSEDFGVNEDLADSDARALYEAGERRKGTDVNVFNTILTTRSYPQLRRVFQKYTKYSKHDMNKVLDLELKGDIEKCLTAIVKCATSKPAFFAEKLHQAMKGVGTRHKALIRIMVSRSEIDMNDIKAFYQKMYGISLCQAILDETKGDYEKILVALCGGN
# T4: ABHD14B (human, UniProt Q96IU4)
# T4 construct: GST fusion on the array
# T4 sequence (looked up): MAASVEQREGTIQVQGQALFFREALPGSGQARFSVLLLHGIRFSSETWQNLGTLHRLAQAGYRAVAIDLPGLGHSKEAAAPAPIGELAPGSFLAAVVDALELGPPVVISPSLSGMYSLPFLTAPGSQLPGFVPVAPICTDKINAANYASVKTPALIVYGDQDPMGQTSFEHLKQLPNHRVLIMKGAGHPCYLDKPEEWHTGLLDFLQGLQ
# T5: LACRT (human, UniProt Q9GZZ8)
# T5 construct: GST fusion on the array
# T5 sequence (looked up): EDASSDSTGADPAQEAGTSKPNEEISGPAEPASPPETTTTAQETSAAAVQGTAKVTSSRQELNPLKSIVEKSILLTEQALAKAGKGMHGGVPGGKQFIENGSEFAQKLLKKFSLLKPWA
# T6: NADK (human, UniProt O95544)
# T6 construct: GST fusion on the array
# T6 sequence (looked up): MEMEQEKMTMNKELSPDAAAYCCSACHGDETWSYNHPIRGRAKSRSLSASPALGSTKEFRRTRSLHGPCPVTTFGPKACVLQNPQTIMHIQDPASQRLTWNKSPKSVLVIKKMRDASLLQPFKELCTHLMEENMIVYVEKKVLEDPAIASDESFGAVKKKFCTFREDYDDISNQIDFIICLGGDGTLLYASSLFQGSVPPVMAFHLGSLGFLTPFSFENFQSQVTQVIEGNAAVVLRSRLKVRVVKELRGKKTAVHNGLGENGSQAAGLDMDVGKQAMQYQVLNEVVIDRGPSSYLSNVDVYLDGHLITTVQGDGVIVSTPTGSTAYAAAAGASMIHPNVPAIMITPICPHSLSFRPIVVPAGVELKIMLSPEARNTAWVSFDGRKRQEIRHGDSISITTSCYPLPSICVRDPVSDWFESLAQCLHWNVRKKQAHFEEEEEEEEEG
# B1: SYN23-26 (designed binder)
# peptide 1: AHKVVPQRQIRHAYNRYGSG
# peptide 2: FRGWAHIFFGPHVIYRGGSG
# modifications: also: two chains joined by their C-termini to a branching Lys (epsilon/alpha N), Lys linker followed by Cys, Cys thiol biotinylated
# notes: Lysine linker followed by cysteine; the thiol of the cysteine biotinylated for the protein array; also called anti-TRF synbody
# Tests used:
# [1] = target: T1, Fbox-21; test: human protein microarray (Protoarray), fluorescence intensity
# Method: (§1) The prescribed cover slip was placed over the array and adjusted to remove air bubbles. The array was incubated in a 50 ml conical tube, printed side up, for 1.5 hours at 4 C without shaking. The array was then removed from the conical tube inserted diagonally into the array chamber, kept on ice. 8 ml probing buffer was added to the chamber wall. The cover slip was removed and the array was incubated in probing buffer for 1 minute on ice. The probing buffer was decanted and drained. Two further washings were performed adding 8 ml probing buffer, incubating on ice for 1 minute, and decanting and draining. 5 nM fluorescently labeled streptavidin diluted in 6 ml probing buffer was incubated on the array for 30 minutes on ice in the dark, after which the solution was decanted and drained. Three wash steps were performed, each by adding 8 ml probing buffer, incubating for 1 minute on ice, decanting, and draining. The array was removed from the chamber, centrifuged at 800×g for 5 minutes at room temperature. The array was dried in the dark for 60 minutes at room temperature, after which it was scanned using a fluorescent microarray scanner and data was taken and analyzed.
# [2] = target: T2, GRP58; test: as above
# Method: as §1
# [3] = target: T3, ANXA1; test: Invitrogen ProtoArray Human Protein Microarray v4.0; biotinylated synbody, fluorescently labelled streptavidin; fluorescence intensity above background
# Method: as §1
# [4] = target: T7, PTK2 (human, UniProt Q05397); test: as above
# T7 construct: GST fusion on the array
# Method: as §1
# [5] = target: T4, ABHD14B; test: as above
# Method: as §1
# [6] = target: T5, LACRT; test: as above
# Method: as §1
# [7] = target: T8, ROCK2 (human, UniProt O75116); test: as above
# T8 construct: GST fusion on the array
# Method: as §1
# [8] = target: T6, NADK; test: as above
# Method: as §1
# [9] = target: T9, PRKAA1 (human, UniProt Q13131); test: as above
# T9 construct: GST fusion on the array
# Method: as §1
# [10] = target: T10, CHAF1B (human, UniProt Q13112); test: as above
# T10 construct: GST fusion on the array
# T10 sequence (Q13112 whole entry, the tested form may be a part): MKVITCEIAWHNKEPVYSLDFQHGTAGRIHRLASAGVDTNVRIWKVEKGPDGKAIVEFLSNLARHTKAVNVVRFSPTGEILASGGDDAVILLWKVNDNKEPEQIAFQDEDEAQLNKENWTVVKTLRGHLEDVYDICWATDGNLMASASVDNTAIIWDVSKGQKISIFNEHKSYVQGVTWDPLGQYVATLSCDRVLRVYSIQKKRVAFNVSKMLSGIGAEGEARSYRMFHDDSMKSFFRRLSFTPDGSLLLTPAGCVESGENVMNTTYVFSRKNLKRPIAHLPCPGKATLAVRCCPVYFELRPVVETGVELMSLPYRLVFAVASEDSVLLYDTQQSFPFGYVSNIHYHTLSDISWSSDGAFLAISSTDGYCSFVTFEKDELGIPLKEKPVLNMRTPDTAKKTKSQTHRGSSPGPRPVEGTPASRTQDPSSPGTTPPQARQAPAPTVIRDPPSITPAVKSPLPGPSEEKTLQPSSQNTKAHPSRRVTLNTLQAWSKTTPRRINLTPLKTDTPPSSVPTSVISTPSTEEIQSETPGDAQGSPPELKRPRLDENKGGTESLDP
# Method: as §1
# T8 sequence (O75116 1-552 limits assumed): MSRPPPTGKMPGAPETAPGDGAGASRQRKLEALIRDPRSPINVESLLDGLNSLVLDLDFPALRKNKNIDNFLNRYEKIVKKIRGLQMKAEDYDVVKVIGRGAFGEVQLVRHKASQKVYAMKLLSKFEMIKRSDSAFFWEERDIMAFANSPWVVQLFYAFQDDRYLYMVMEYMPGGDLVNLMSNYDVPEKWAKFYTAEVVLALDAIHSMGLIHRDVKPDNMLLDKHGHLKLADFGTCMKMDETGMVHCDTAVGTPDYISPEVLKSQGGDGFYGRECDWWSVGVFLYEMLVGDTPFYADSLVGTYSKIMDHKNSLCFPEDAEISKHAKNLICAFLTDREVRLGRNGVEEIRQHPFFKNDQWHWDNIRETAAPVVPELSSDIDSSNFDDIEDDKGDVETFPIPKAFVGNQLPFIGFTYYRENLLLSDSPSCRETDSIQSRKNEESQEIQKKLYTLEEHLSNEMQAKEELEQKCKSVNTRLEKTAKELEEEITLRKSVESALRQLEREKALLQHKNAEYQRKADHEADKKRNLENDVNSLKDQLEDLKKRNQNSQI
# T9 sequence (Q13131 whole entry, the tested form may be a part): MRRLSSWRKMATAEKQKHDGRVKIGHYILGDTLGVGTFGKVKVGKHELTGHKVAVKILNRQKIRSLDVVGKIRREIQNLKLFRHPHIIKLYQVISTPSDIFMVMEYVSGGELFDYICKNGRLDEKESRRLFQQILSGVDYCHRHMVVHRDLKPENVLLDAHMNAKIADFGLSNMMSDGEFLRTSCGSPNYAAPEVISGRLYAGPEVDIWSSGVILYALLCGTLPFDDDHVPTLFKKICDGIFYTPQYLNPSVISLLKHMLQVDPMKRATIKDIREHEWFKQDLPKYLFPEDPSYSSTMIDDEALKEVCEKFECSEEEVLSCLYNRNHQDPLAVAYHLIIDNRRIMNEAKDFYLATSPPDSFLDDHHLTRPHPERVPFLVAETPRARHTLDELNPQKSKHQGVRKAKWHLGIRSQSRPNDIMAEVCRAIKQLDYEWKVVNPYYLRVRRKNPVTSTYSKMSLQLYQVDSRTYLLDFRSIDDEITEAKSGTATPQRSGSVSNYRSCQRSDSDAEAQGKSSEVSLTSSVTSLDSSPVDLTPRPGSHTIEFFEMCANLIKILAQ
# T7 sequence (Q05397 whole entry, the tested form may be a part): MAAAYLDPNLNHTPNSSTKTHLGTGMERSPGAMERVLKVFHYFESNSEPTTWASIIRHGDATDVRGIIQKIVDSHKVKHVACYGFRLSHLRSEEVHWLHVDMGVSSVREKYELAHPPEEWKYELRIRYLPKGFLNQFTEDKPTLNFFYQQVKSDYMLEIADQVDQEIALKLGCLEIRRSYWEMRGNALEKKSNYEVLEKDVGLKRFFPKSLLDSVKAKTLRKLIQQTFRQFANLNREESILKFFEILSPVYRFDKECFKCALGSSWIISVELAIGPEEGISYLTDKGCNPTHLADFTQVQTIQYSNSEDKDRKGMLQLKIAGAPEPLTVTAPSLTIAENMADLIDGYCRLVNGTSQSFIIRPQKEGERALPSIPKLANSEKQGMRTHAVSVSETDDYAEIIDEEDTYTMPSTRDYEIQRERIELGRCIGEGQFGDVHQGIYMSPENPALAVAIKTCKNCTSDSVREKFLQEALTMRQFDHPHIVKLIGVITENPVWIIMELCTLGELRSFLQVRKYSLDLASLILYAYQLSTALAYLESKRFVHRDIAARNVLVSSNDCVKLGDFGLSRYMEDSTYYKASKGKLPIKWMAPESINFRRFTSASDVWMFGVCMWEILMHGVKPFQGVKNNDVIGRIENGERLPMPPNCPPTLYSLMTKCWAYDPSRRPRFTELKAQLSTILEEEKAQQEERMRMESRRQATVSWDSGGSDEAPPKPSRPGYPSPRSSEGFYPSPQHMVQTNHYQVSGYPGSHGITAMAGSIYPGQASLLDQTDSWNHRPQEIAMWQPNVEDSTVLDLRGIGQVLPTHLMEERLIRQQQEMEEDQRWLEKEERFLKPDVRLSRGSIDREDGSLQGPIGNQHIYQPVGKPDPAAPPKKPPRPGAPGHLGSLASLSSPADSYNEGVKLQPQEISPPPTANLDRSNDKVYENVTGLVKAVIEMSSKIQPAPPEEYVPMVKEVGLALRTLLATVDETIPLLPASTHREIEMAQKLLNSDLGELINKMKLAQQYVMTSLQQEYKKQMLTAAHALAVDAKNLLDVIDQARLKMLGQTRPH
binder,measurement,setting,value
B1,binding result,[1],binds
same,binding result,[2],binds
same,binding result,[3],binds
same,binding result,[4],no binding
same,binding result,[5],no binding
same,binding result,[6],no binding
same,binding result,[7],no binding
same,binding result,[8],no binding
same,binding result,[9],no binding
same,binding result,[10],binds
